Laboratory results taken from patent US20200085917A1 (UNIVERSITY OF PITTSBURGH OF THE COMMONWEALTH SYSTEM OF …, published 2020).

Target: T1, GST alone (UniProt P08515 1-218 = GST)
T1 construct: Negative control of the pull-downs; also called control GST
Test: GST pull-down, LC-MS/MS
Experimental: Extracts were spun at 14,000 r.p.m. at 4° C., and clarified supernatants were incubated with glutathione 4B Sepharose beads (GE Healthcare) at 4° C. overnight. The glutathione beads were then washed extensively with ice-cold TNE buffer, and bound proteins were subjected to SDS-PAGE followed by immunoblotting analysis. For the samples subjected to mass spectrometry, glutathione bead-bound proteins from equal amounts (600 μg) of mitochondria were further washed with high stringency RIPA buffer following TNE buffer wash to decrease nonspecific interaction. Proteins were then eluted from the glutathione beads in SDS sample buffer, separated by SDS-PAGE and stained with Coomassie. Proteins in the gel were digested with trypsin and analyzed by mass spectrometry (LC-MS/MS) at the Taplin Biological Mass Spectrometry Facility (Harvard Medical School, Boston, Mass.).

T1 sequence (P08515 whole entry): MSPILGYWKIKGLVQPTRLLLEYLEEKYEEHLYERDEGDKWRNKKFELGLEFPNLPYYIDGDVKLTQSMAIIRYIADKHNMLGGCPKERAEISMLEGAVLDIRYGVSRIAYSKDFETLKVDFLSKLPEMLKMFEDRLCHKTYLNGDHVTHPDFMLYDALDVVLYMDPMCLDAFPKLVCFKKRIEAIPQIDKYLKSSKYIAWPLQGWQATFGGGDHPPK

Row | Binder | binding result
1 | Lyrm4_IPI:IPI00169804.1 (other, mouse, UniProt Q8K215 1-91, looked up) MAASSRAQVLDLYRAMMRESKHFSAYNYRMYAVRRIRDAFRENKNVKDPVEIQALVNKAKRDLEIIRRQVHIGQLYSTDKLIIENQEKPRT | no binding
2 | Rab2a_IPI:IPI00137227.1 (other, mouse, UniProt P53994 2-212, looked up) AYAYLFKYIIIGDTGVGKSCLLLQFTDKRFQPVHDLTIGVEFGARMITIDGKQIKLQIWDTAGQESFRSITRSYYRGAAGALLVYDITRRDTFNHLTTWLEDARQHSNSNMVIMLIGNKSDLESRREVKKEEGEAFAREHGLIFMETSAKTASNVEEAFINTAKEIYEKIQEGVFDINNEANGIKIGPQHAATNASHGSNQGGQQAGGGCC | no binding
3 | Hint2_IPI:IPI00133034.3 (other, mouse, UniProt Q9D0S9 18-163, looked up) LAAAGARGAQVRGNAGVSDGSEVAKAQKAAPGGASPTIFSRILDRSLPADILYEDQQCLVFRDVAPQAPVHFLVIPRKPIPRISQAEEDDQQLLGHLLLVAKKIAQAQGLKDGYRLVVNDGKMGAQSVYHLHIHVLGGRQLQWPPG | no binding
4 | Mrpl43_IPI:IPI00278781.1 (other, mouse, UniProt Q99N89 1-183, looked up) MTGRGTSSRFLTSVLHNGLGRYVQQLQRLSLSLSRDAPSSRGAREFVEREVTDFARRNPGVVVYVNPRPCAMPRIVAEYLNGAVREENVNSKSVEEIKSLVQKLADQSGLDVIRIRKPFHTDNPSIQGQWTPSPTNGLPSTGCGPENSGILLQLRCKHSKEPGALDRERDRIGSSFGFQAQAE | no binding
5 | Fahd1_IPI:IPI00468850.1 (other, mouse, UniProt Q8R0F8 25-221, looked up) ADHVKEMRSTVLSEPVLFLKPSTAYAPEGSPVLMPAYCRNLHHEVELGVLLGKRGEAIPEAAAMDYVAGYALCLDMTARDVQEECKKKGLPWTLAKSFTSSCPVSAFVPKEKIPDPHALRLWLKVNGELRQEGKTSSMIFSIPYIISYVSKIITLEEGDLILTGTPKGVGPIKENDEIEAGIDGVVSMRFKVKRSEY | no binding
6 | Ndufa11_IPI:IPI00318645.6 (other, mouse, UniProt Q9D8B4 1-141, looked up) MVKRFFESYHEVPDGTQCHRKTYITTALGGICGIIGSAYRVSLNPADSTLEAVARVGRYTFTAAAIGAMFGLTTCVSAQVREKPDDPLNYFIGGCAGGLTLGARTHSYGTAAMGCVYMGTAAALFKIGKLEGWELFPTPKV | no binding
7 | Chchd4_IPI:IPI00124389.1 (other, mouse, UniProt Q8VEA4 1-139, looked up) MSYCRQEGKDRIIFVTKEDHETPSSAELVADDPNDPYEEHGLILPNGDINWNCPCLGGMASGPCGEQFKSAFSCFHYSTEDIKGSDCIDQFRAMQECMQKYPDLYPQDEEEEEEAKPVEPVEETADTKVSAAKEQGTSS | no binding
8 | Uqcrb_IPI:IPI00132347.1 (other, mouse, UniProt Q9D855 2-111, looked up) AGRSAVSASSKWLDGFRKWYYNAAGFNKLGLMRDDTLHETEDVKEAIRRLPEDLYNDRMLRIKRALDLTMRHQILPKDQWTKYEEDKFYLEPYLKEVIRERKEREEWAKK | no binding
9 | Rab15_IPI:IPI00170032.1 (other, Natural C-terminal geranylgeranylation of the cysteines (CWC motif) in the endogenous protein is not carried by the letters.) MAKQYDVLFRLLLIGDSGVGKTCLLCRFTDNEFHSSHISTIGVDFKMKTIDVDGIKVRIQIWDTAGQERYQTITKQYYRRAQGIFLVYDISSERSYQHIMKWVSDVDEYAPEGVQKILIGNKADEEQKRQVGREQGQQLAKEYGMDFYETSACTNLNIKESFTRLTELVLQAHRKELDGLRTRASNELALAELEEDEGKPEGPANSSKTCWC | no binding
10 | Lyrm7_IPI:IPI00117832.1 (other, mouse, UniProt Q9DA03 1-104, looked up) MGQPAKVLQLFKTLHRTRQQVFKNDKRALEAARVKINEEFKKHKNETSPEKIKEMMKLGSDVELLLRTAVIQGIHTDHDTLQLVPRKDLLTENVPYCDAPTQKQ | no binding

Now from value to binder:

Row | binding result | Binder
11 | no binding | Mrps33_IPI:IPI00135214.1 (other, mouse, UniProt Q9D2R8 2-106, looked up) SPLSEYALRMSRLSARIFGEVARSTDSKSMKVVSLFSEQPLAKKKETYDWYPNHNTYFALMGNLRFLGLYRDEHQDFKDEQRRLKKLRGKGKPRKGEGKRATKKK
12 | no binding | Fabp5_IPI:IPI00114162.3 (other, mouse, UniProt Q05816 2-135, looked up) ASLKDLEGKWRLMESHGFEEYMKELGVGLALRKMAAMAKPDCIITCDGNNITVKTESTVKTTVFSCNLGEKFDETTADGRKTETVCTFQDGALVQHQQWDGKESTITRKLKDGKMIVECVMNNATCTRVYEKVQ
13 | no binding | Atp5f1_IPI:IPI00341282.2 (other, mouse, UniProt Q9CQQ7 43-256, looked up) PLPPLPEYGGKVRLGLIPEEFFQFLYPKTGVTGPYVLGTGLSLYFLSKEIYVITPETFSTISVVGLIVYVIKKYGASFGEFIDKLNEEKIAQLEEVKQSSMKQIQDAIDMEKAQQALVQKRHYLFDVQRNNIALALEVTYRERLHKAYKEVKNRLDYHISVQNMMRRKEEEHMIDWVEKHVVKSISVQQEKETIAKCIEDLKLLAKKAQAQPIM
14 | no binding | Tim23 (endogenous, mouse forebrain mitochondria) (other, UniProt Q9WTQ8 1-209, looked up, also called Timm23_IPI:IPI00123712.1; Tim23 subunit) MEGGGRSSNKSTSGLAGFFGAGGAGYSNADLAGVPLTGMNPLSPYLNVDPRYLVQDTDEFILPTGANKTRGRFELAFFTIGGCCMTGAAFGAMNGLRLGLKETQSMAWSKPRNVQILNMVTRQGALWANTLGSLALLYSAFGVIIEKTRGAEDDLNTVAAGTMTGMLYKCTGGLRGIARGGLAGLTLTSLYALYNNWVHMKGSLLQQSL
15 | no binding | Uqcrq_IPI:IPI00224210.5 (other, mouse, UniProt Q9CQ69 1-82, looked up) MGREFGNLARIRHVISYSLSPFEQRAFPSYFSKGIPNVLRRTRERILRVAPPFVVVYLIYTWGNQEFEQSKRKNPAMYENDK
16 | no binding | Cplx2_IPI:IPI00111501.1 (other, mouse, UniProt P84086 1-134, looked up) MDFVMKQALGGATKDMGKMLGGEEEKDPDAQKKEEERQEALRQQEEERKAKHARMEAEREKVRQQIRDKYGLKKKEEKEAEEKAALEQPCEGSLTRPKKAIPAGCGDEEEEEEESILDTVLKYLPGPLQDMFKK
17 | no binding | Cisd3_IPI:IPI00345740.4 (other, mouse, UniProt B1AR13 1-137, looked up) MGFRRLSFPTDFIFLFPNHICLPALSKPYQRREISSWLARWFPKDPAKPVVAQKTPIRLELVAGKTYRWCVCGRSKNQPFCDGSHFFQRTGLSPLKFKAQETRTVALCTCKATQRPPYCDGTHKSEQVQKAEVGSPL
18 | no binding | Iscu_IPI:IPI00110578.1 (other, mouse, UniProt Q9D7P6 36-168, looked up) YHKKVVDHYENPRNVGSLDKTSKNVGTGLVGAPACGDVMKLQIQVDEKGKIVDARFKTFGCGSAIASSSLATEWVKGKTVEEALTIKNTDIAKELCLPPVKLHCSMLAEDAIKAALADYKLKQESKKEEPEKQ
19 | no binding | Synj2bp_IPI:IPI00109206.1 (other, mouse, UniProt Q9D6K5 1-145, looked up) MNGRVDYLVTEEEINLTRGPSGLGFNIVGGTDQQYVSNDSGIYVSRIKEDGAAAQDGRLQEGDKILSVNGQDLKNLLHQDAVDLFRNAGCAVSLRVQHRLPVQNGPIVHRGEGEPSGVPVAMVLLPVFALTMVAVWAFVRYRKQL
20 | no binding | Rab5b_IPI:IPI00116563.2 (other, mouse, UniProt P61021 2-215, looked up) TSRSTARPNGQPQASKICQFKLVLLGESAVGKSSLVLRFVKGQFHEYQESTIGAAFLTQSVCLDDTTVKFEIWDTAGQERYHSLAPMYYRGAQAAIVVYDITNQETFARAKTWVKELQRQASPSIVIALAGNKADLANKRMVEYEEAQAYADDNSLLFMETSAKTAMNVNDLFLAIAKKLPKSEPQNLGGAAGRSRGVDLHEQSQQNKSQCCSN
